A word on the IC50: it is the concentration needed to halve the response being measured.

Among the data in the Immune Epitope Database (IEDB) are IC50 values, retold here.

Bounds are passed on as bounds.

For assay [1], the target named is HLA-A*02:03. As to the kind of experiment: IEDB peptide-MHC binding, purified MHC/competitive/radioactivity; ≥ and ≤ were set here for values at or beyond the usual limits of such assays.
Assay [2] deals with HLA-A*02:02. Described as above.
The target of assay [3] is HLA-A*03:01. The description is as above. The conditions noted are these: source organism: Hepatitis B virus.
In assay [4] the target is HLA-A*02:01. The assay is described as above.
The next assay concerns the target HLA-A*02:06. The description is as above.
In assay [5] the target is HLA-A*68:02. The description is as above. The following applies: source organism: Hepatitis B virus.
A further assay addresses HLA-A*68:01. As to the kind of experiment: IEDB peptide-MHC binding, cellular MHC/competitive/fluorescence; ≥ and ≤ were set here for values at or beyond the usual limits of such assays. The following applies: source organism: Hepatitis B virus.
In assay [6] the target is HLA-A*31:01. The assay is described as above. The following applies: source organism: Hepatitis B virus.
Another assay addresses HLA-A*11:01. The assay is described as above. The conditions noted are these: source organism: Hepatitis B virus.
In assay [7] the target is HLA-A*03:01. The assay is described as above. The conditions noted are these: source organism: Hepatitis B virus.
Assay [8] concerns the target HLA-A*68:02. The description is as above.
For assay [9], the target named is HLA-A*02:03. The description is as above. The following applies: source organism: Hepatitis B virus.
Assay [10] has as its target HLA-A*02:02. Described as above. The following applies: source organism: Hepatitis B virus.
For assay [11], the target named is HLA-A*02:01. The description is as above. The conditions noted are these: source organism: Hepatitis B virus.
Assay [12] deals with HLA-A*31:01. As to the kind of experiment: IEDB peptide-MHC binding, purified MHC/competitive/radioactivity; ≥ and ≤ were set here for values at or beyond the usual limits of such assays.
Setting [13] is: source organism: Hepatitis B virus.
The mark [14] stands for this setting: source organism: Vaccinia virus WR.

For the sequence FLAPLPIHTA, the IC50 with HLA-A*02:03 [1] (setting [13]) was determined as 0.00028 µM; in the assay with HLA-A*02:02 [2] (setting [13]), 0.049 nM; with HLA-A*03:01 [3], 4.09 µM; in the assay with HLA-A*02:01 [4] (setting [13]) it was 0.0013 µM; in the assay with HLA-A*02:06 (setting [13]) it was 0.013 µM; with HLA-A*68:02 [5], 0.971 µM. For the same sequence, the 50% inhibitory concentration (IC50) with HLA-A*68:01 is 35.5 µM; with HLA-A*31:01 [6], at least 70 µM; with HLA-A*11:01 it was 43.2 µM.
In the case of FLCKQYLNL, the half-maximal inhibitory concentration (IC50) in the assay with HLA-A*02:03 [1] (setting [13]) is 0.011 µM; with HLA-A*02:02 [2] (setting [13]) it was 175 nM; in the assay with HLA-A*02:06 (setting [13]), 1.11 µM; in the assay with HLA-A*68:01, at least 70 µM; in the assay with HLA-A*03:01 [7], at least 70 µM; with HLA-A*31:01 [6] it was 26.3 µM. Besides, the concentration for half-maximal inhibition (IC50) with HLA-A*68:02 [8] (setting [13]) and with HLA-A*11:01 was at least 70 µM throughout.
For the sequence FLGPLLVLQA, the IC50 with HLA-A*02:03 [1] (setting [13]) was 0.16 µM; with HLA-A*02:02 [2] (setting [13]), 3690 nM; in the assay with HLA-A*02:06 (setting [13]), 1.37 µM; with HLA-A*68:01 it was at least 70 µM; with HLA-A*03:01 [7], 33.1 µM; in the assay with HLA-A*31:01 [6], 14.7 µM. The IC50 in the assay with HLA-A*68:02 [8] (setting [13]) is 30.3 µM; in the assay with HLA-A*11:01 it was 61.2 µM.
Regarding FLLSLGIHL, the half-inhibitory concentration (IC50) with HLA-A*03:01 [3] is 2.53 µM; in the assay with HLA-A*68:01, 15.7 µM; with HLA-A*31:01 [6], 6.79 µM; with HLA-A*68:02 [8] (setting [13]) it was 10.5 µM.
GLSRYVARV: the IC50 with HLA-A*02:03 [1] (setting [13]) was 0.0015 µM; with HLA-A*02:02 [2] (setting [13]), 11 nM; in the assay with HLA-A*02:01 [4] (setting [13]), 0.154 µM; with HLA-A*02:06 (setting [13]) it was 1.17 µM; with HLA-A*68:01 it was at least 70 µM; with HLA-A*03:01 [7], 7.23 µM. Besides, the results for the IC50 in the assay with HLA-A*31:01 [6], in the assay with HLA-A*68:02 [8] (setting [13]) and in the assay with HLA-A*11:01 were 24.7 µM, 8.86 µM and at least 70 µM, respectively.
Take HQLDPAFRA: the IC50 with HLA-A*02:06 (setting [13]) was 0.118 µM; with HLA-A*68:01 it was at least 70 µM; with HLA-A*02:03 [9], 55.9 µM; with HLA-A*02:02 [10], 16 µM; in the assay with HLA-A*03:01 [7], at least 70 µM; in the assay with HLA-A*02:01 [11], 6.45 µM. Further, the figures for the half-maximal inhibitory concentration (IC50) with HLA-A*31:01 [6], with HLA-A*68:02 [8] (setting [13]) and with HLA-A*11:01 were 40.6 µM, at least 70 µM and 14.7 µM, respectively.
ILCWGELMTL: the 50% inhibitory concentration (IC50) in the assay with HLA-A*02:03 [1] (setting [13]) turned out to be 0.0053 µM; in the assay with HLA-A*02:02 [2] (setting [13]), 6.7 nM; with HLA-A*31:01 [12] (setting [13]), 1.86 µM; in the assay with HLA-A*02:06 (setting [13]) it was 0.007 µM; with HLA-A*68:01 it was 43.9 µM; in the assay with HLA-A*03:01 [7], 9.08 µM. The figures for the 50% inhibitory concentration (IC50) in the assay with HLA-A*68:02 [8] (setting [13]) and with HLA-A*11:01 were 7.82 µM and at least 70 µM, respectively.
KLYIALCKV: the IC50 with HLA-A*02:03 [1] (setting [14]) came out at 0.0014 µM; in the assay with HLA-A*02:02 [2] (setting [14]) it was 16 nM; with HLA-A*02:01 [4] (setting [14]) it was 0.0067 µM; in the assay with HLA-A*31:01 [12] (setting [14]) it was 0.739 µM; with HLA-A*02:06 (setting [14]) it was 0.097 µM; with HLA-A*68:02 [8] (setting [14]), 16.6 µM.
Take KQYLNLYPV: the IC50 with HLA-A*02:03 [1] (setting [13]) was 0.0045 µM; with HLA-A*02:02 [2] (setting [13]), 224 nM; with HLA-A*02:01 [4] (setting [13]) it was 0.138 µM; with HLA-A*31:01 [12] (setting [13]), 0.189 µM; with HLA-A*02:06 (setting [13]), 0.011 µM; with HLA-A*68:01, at least 70 µM. Further, the half-maximal inhibitory concentration (IC50) was at least 70 µM in the assay with HLA-A*03:01 [7], 36.8 µM with HLA-A*68:02 [8] (setting [13]) and 30.4 µM in the assay with HLA-A*11:01.
For KVGAGAFGL, the half-maximal inhibitory concentration (IC50) with HLA-A*02:06 (setting [13]) is 1.14 µM; with HLA-A*68:01 it was at least 70 µM; with HLA-A*02:03 [9], 34.7 µM; with HLA-A*02:02 [10] it was 9.12 µM; in the assay with HLA-A*03:01 [7], 25 µM; in the assay with HLA-A*02:01 [11], 11 µM. For the same sequence, the IC50 was 12.6 µM in the assay with HLA-A*31:01 [6], at least 70 µM with HLA-A*68:02 [8] (setting [13]) and at least 70 µM in the assay with HLA-A*11:01.
For LLPIFFCLWV, the concentration for half-maximal inhibition (IC50) in the assay with HLA-A*02:03 [1] (setting [13]) was 0.015 µM; with HLA-A*03:01 [3], 1.33 µM; in the assay with HLA-A*02:06 (setting [13]) it was 0.0023 µM; in the assay with HLA-A*68:01 it was 51 µM; in the assay with HLA-A*31:01 [6] it was 6.23 µM; with HLA-A*68:02 [8] (setting [13]), at least 70 µM. Also, the half-inhibitory concentration (IC50) with HLA-A*11:01 was at least 70 µM.
Regarding LLVLLDYQGM, the IC50 in the assay with HLA-A*02:02 [2] (setting [13]) is 799 nM; in the assay with HLA-A*02:06 (setting [13]), 1.81 µM; with HLA-A*68:01, at least 70 µM; with HLA-A*02:03 [9] it was 5.58 µM; in the assay with HLA-A*03:01 [7] it was 19.5 µM; with HLA-A*31:01 [6], 7.26 µM. For the same sequence, the IC50 is 61.1 µM with HLA-A*68:02 [8] (setting [13]) and at least 70 µM with HLA-A*11:01.
Consider LLWFHISCL, for which the IC50 in the assay with HLA-A*02:02 [2] (setting [13]) is 307 nM; with HLA-A*03:01 [3] it was 3.26 µM; with HLA-A*02:06 (setting [13]), 0.382 µM; in the assay with HLA-A*68:01, at least 70 µM; in the assay with HLA-A*31:01 [6], 8.85 µM; in the assay with HLA-A*68:02 [8] (setting [13]) it was at least 70 µM. This sequence also had an IC50 with HLA-A*11:01 of 32.5 µM.
